Changes are numbered by the printed parent chain. Numbers in names are those of the source.

T1: EsCas13d, nuclease-dead (Eubacterium siraeum, UniProt B0MS50, R295A;H300A;R849A;H854A)
T1 sequence: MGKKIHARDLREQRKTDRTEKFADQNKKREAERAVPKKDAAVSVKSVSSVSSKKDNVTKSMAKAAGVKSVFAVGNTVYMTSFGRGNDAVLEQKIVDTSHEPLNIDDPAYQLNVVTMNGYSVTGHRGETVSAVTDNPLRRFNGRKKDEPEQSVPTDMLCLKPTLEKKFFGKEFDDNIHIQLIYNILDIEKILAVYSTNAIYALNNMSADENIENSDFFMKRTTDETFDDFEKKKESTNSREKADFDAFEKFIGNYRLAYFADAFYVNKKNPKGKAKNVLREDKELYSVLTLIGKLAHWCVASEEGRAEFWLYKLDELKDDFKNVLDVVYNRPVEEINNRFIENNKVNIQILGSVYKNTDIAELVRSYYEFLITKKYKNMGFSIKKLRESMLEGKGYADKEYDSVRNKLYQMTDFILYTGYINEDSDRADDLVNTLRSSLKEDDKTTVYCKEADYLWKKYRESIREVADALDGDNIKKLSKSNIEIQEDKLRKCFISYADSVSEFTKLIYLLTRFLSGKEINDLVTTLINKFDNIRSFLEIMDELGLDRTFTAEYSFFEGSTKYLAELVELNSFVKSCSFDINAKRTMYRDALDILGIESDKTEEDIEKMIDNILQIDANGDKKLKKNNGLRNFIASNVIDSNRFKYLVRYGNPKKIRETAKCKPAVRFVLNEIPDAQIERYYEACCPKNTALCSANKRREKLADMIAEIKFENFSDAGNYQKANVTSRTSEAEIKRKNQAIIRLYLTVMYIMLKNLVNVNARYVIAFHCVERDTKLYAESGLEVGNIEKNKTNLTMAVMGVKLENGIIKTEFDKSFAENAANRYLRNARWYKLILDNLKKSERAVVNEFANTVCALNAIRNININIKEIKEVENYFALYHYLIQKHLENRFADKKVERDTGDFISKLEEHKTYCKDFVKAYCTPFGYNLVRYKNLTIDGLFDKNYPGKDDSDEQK

B1: target 1 insU 3' of 12,insU 3' of 1 (mixed)
RNA 1: CACCCGUGCAAAAAUGCAGGGGUCUAAAACUGAGCGGAUAACCUCUCUAUGG
RNA 2: GGGAAUGGAUCCACAUCUACGAAUUCGUACCAUAGAGAGGUUUAUCCGCUCAUCCGAGAUCGGAAGAGCACACGU
B2: target 1 C6U,A16G (mixed)
RNA 1: B1 RNA 1
RNA 2: GGGAAUGGAUCCACAUCUACGAAUUCGUACCAUAGGGAGGUUAUCUGCUCACCGAGAUCGGAAGAGCACACGU
B3: target 1 A1G,C2G (mixed)
RNA 1: B1 RNA 1
RNA 2: B2 RNA 2 with G36A, U46C, C50G, A51G
B4: target 2 MT 5'PFS UCA 3'PFS UAG (mixed)
RNA 1: CACCCGUGCAAAAUUGCAGGGGUCUAAAACCUUCUCCAAAUUGUUUCAUCCU
RNA 2: GGGAAUGGAUCCACAUCUACGAAUUCUCAAGGAUGAAACAAUUUGGAGAAGUAGAGAUCGGAAGAGCACACGU
B5: target 2 MT 5'PFS UGA 3'PFS CCA (mixed)
RNA 1: B4 RNA 1
RNA 2: B4 RNA 2 with C28G, U52C, A53C, G54A
B6: target 2 MT 5'PFS AAA 3'PFS ACA (mixed)
RNA 1: B4 RNA 1
RNA 2: B4 RNA 2 with U27A, C28A, U52A, A53C, G54A
B7: target 2 MT 5'PFS GGC 3'PFS CUA (mixed)
RNA 1: B4 RNA 1
RNA 2: B4 RNA 2 with U27G, C28G, A29C, U52C, A53U, G54A
B8: target 2 MT 5'PFS CGU 3'PFS ACU (mixed)
RNA 1: B4 RNA 1
RNA 2: B4 RNA 2 with U27C, C28G, A29U, U52A, A53C, G54U
B9: target 2 MT 5'PFS UUA 3'PFS CAG (mixed)
RNA 1: B4 RNA 1
RNA 2: B4 RNA 2 with C28U, U52C
B10: target 2 MT 5'PFS GAG 3'PFS ACC (mixed)
RNA 1: B4 RNA 1
RNA 2: B4 RNA 2 with U27G, C28A, A29G, U52A, A53C, G54C
B11: target 2 MT 5'PFS GAG 3'PFS ACG (mixed)
RNA 1: B4 RNA 1
RNA 2: B4 RNA 2 with U27G, C28A, A29G, U52A, A53C
B12: target 2 MT 5'PFS UUA 3'PFS CAC (mixed)
RNA 1: B4 RNA 1
RNA 2: B4 RNA 2 with C28U, U52C, G54C
B13: target 2 MT 5'PFS GGG 3'PFS ACC (mixed)
RNA 1: B4 RNA 1
RNA 2: B4 RNA 2 with U27G, C28G, A29G, U52A, A53C, G54C
B14: target 2 MT 5'PFS GGG 3'PFS ACU (mixed)
RNA 1: B4 RNA 1
RNA 2: B4 RNA 2 with U27G, C28G, A29G, U52A, A53C, G54U
B15: target 2 MT 5'PFS ACC 3'PFS UGU (mixed)
RNA 1: B4 RNA 1
RNA 2: B4 RNA 2 with U27A, A29C, A53G, G54U
B16: target 2 MT 5'PFS GUA 3'PFS UCA (mixed)
RNA 1: B4 RNA 1
RNA 2: B4 RNA 2 with U27G, C28U, A53C, G54A
B17: target 2 MT 5'PFS CGA 3'PFS AUC (mixed)
RNA 1: B4 RNA 1
RNA 2: B4 RNA 2 with U27C, C28G, U52A, A53U, G54C
B18: target 2 MT 5'PFS GAG 3'PFS ACA (mixed)
RNA 1: B4 RNA 1
RNA 2: B4 RNA 2 with U27G, C28A, A29G, U52A, A53C, G54A
B19: target 2 MT 5'PFS GGC 3'PFS CUC (mixed)
RNA 1: B4 RNA 1
RNA 2: B4 RNA 2 with U27G, C28G, A29C, U52C, A53U, G54C
B20: target 2 MT 5'PFS UUA 3'PFS CAU (mixed)
RNA 1: B4 RNA 1
RNA 2: B4 RNA 2 with C28U, U52C, G54U
B21: target 2 MT 5'PFS GGG 3'PFS ACG (mixed)
RNA 1: B4 RNA 1
RNA 2: B4 RNA 2 with U27G, C28G, A29G, U52A, A53C
B22: target 2 MT 5'PFS GAG 3'PFS ACU (mixed)
RNA 1: B4 RNA 1
RNA 2: B4 RNA 2 with U27G, C28A, A29G, U52A, A53C, G54U
B23: target 2 MT 5'PFS UUG 3'PFS CCG (mixed)
RNA 1: B4 RNA 1
RNA 2: B4 RNA 2 with C28U, A29G, U52C, A53C
B24: target 2 MT 5'PFS GGC 3'PFS CUU (mixed)
RNA 1: B4 RNA 1
RNA 2: B4 RNA 2 with U27G, C28G, A29C, U52C, A53U, G54U
B25: target 2 MT 5'PFS GAC 3'PFS CGC (mixed)
RNA 1: B4 RNA 1
RNA 2: B4 RNA 2 with U27G, C28A, A29C, U52C, A53G, G54C
B26: target 2 MT 5'PFS UUA 3'PFS CAA (mixed)
RNA 1: B4 RNA 1
RNA 2: B4 RNA 2 with C28U, U52C, G54A
B27: target 2 MT 5'PFS ACC 3'PFS UGA (mixed)
RNA 1: B4 RNA 1
RNA 2: B4 RNA 2 with U27A, A29C, A53G, G54A
B28: target 2 MT 5'PFS AAA 3'PFS ACC (mixed)
RNA 1: B4 RNA 1
RNA 2: B4 RNA 2 with U27A, C28A, U52A, A53C, G54C
B29: target 2 MT 5'PFS CGU 3'PFS ACG (mixed)
RNA 1: B4 RNA 1
RNA 2: B4 RNA 2 with U27C, C28G, A29U, U52A, A53C
B30: target 2 MT 5'PFS GUA 3'PFS UCC (mixed)
RNA 1: B4 RNA 1
RNA 2: B4 RNA 2 with U27G, C28U, A53C, G54C
B31: target 2 MT 5'PFS UGA 3'PFS CCG (mixed)
RNA 1: B4 RNA 1
RNA 2: B4 RNA 2 with C28G, U52C, A53C
B32: target 2 MT 5'PFS GGC 3'PFS CUG (mixed)
RNA 1: B4 RNA 1
RNA 2: B4 RNA 2 with U27G, C28G, A29C, U52C, A53U
B33: target 2 MT 5'PFS UAG 3'PFS CAC (mixed)
RNA 1: B4 RNA 1
RNA 2: B4 RNA 2 with C28A, A29G, U52C, G54C
B34: target 2 MT 5'PFS GGG 3'PFS ACA (mixed)
RNA 1: B4 RNA 1
RNA 2: B4 RNA 2 with U27G, C28G, A29G, U52A, A53C, G54A
B35: target 2 MT 5'PFS UUG 3'PFS CCU (mixed)
RNA 1: B4 RNA 1
RNA 2: B4 RNA 2 with C28U, A29G, U52C, A53C, G54U
B36: target 2 MT 5'PFS ACC 3'PFS UGC (mixed)
RNA 1: B4 RNA 1
RNA 2: B4 RNA 2 with U27A, A29C, A53G, G54C

For the data set, the target named is T1, EsCas13d, nuclease-dead. In words: crRNA (strand 1, pre-loaded); Mg2+; 40 mM Tris-HCl pH 7.5, 150 mM NaCl, 6 mM MgCl2, 1 mM DTT, 0.1% Tween-20, 0.2 mg/ml BSA; 25 C; 10 min per concentration, then washed. To be noted: tags: His6-TwinStrep-SUMO cleaved; N-terminal SNAP kept (SNAP-Surface 488); label: 3' end held by stalled T7 RNA polymerase.
B1: binding was characterised by a dissociation constant (Kd) of 8.23 ± 0.33 nM.
For B2 the value was 31.9 ± 2.2 nM; for B3, 5.54 ± 0.24 nM; for B4, 3.9 ± 0.5 nM.
For B5 the value was 15.6 ± 2.8 nM; for B6, 7.8 ± 2.2 nM; for B7, 12 ± 1.9 nM.
For B8, the dissociation constant (Kd) (commonly the equilibrium constant for the complex coming apart) was 23 ± 5 nM.
Take B9: the Kd amounted to 18.5 ± 1.9 nM.
The figure for B10 is 14 ± 4 nM; for B11 it is 6.7 ± 0.32 nM.
B12 had a dissociation constant (Kd) of 30 ± 7 nM.
Turning to B13, the dissociation constant (Kd) stood at 22 ± 4 nM.
With B14, the Kd came out at 9.3 ± 0.4 nM.
The molecule B15 had a Kd of 18 ± 6 nM.
In the case of B16, the dissociation constant Kd was 10.3 ± 1.2 nM.
B17 gave an equilibrium dissociation constant (Kd) of 7.1 ± 1.4 nM.
The molecule B18 gave an equilibrium dissociation constant (Kd) of 9.6 ± 1.6 nM.
B19 came in with a Kd of 13.2 ± 1.2 nM.
In the case of B20, the Kd worked out at 14.3 ± 1.3 nM.
As to B21, the Kd is 10.4 ± 0.6 nM.
Turning to B22, the Kd amounted to 8.1 ± 0.7 nM.
The figure for B23 is 16.8 ± 1.4 nM; for B24 it is 17.6 ± 1.8 nM.
B25 yielded a Kd of 14.8 ± 3.2 nM.
Molecule B26 gave a dissociation constant Kd of 14.4 ± 2.6 nM.
The figure for B27 is 8 ± 1.4 nM; for B28 it is 9.2 ± 2.8 nM.
In turn, B29 came in with a Kd of 21 ± 5 nM. Against the preceding molecule, the Kd is about 2.3-fold higher.
B30: the Kd stood at 29 ± 5 nM.
The molecule B31 yielded a dissociation constant Kd of 9.2 ± 1 nM.
For the molecule B32, the Kd turned out to be 12.9 ± 1.3 nM.
In turn, B33 registered an equilibrium dissociation constant (Kd) of 2.69 ± 0.34 nM.
In the case of B34, the Kd amounted to 9.4 ± 0.8 nM.
Take B35: the Kd was ~80 nM.
Turning to B36, the Kd was 7.7 ± 2.2 nM.

Values taken from PMC10786891, “Massively parallel profiling of RNA-targeting CRISPR-Cas13d”.
